Laboratory results from patent publication US20220073563A1.

Molecular target: GLP-2R (UniProt O95838)
Assay: cell-based or functional assay

Sequence of GLP-2R (O95838 whole entry): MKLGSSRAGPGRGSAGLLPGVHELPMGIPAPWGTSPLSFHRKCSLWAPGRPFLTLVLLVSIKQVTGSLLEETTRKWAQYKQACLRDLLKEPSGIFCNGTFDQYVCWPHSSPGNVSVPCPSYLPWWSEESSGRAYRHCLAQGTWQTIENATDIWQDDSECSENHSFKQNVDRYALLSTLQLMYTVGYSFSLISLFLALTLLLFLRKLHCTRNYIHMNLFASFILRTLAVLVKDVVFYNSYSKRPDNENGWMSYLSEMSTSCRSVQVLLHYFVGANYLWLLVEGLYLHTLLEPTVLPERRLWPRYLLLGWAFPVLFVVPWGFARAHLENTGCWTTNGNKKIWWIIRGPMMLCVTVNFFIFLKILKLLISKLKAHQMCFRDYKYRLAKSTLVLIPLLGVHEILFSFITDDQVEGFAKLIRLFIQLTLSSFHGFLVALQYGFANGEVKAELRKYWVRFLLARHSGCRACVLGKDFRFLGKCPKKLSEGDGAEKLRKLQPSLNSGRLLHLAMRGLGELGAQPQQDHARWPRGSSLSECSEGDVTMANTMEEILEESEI

In the case of “GLP-2 (from UniProt P01275 146-178) (peptide)”, the EC50, luciferase reporter in GLP-2R/Luc-CHO cells (6 h stimulation) was 4.7 nM.
